B1: Erythropoietin receptor (Homo sapiens), P19235 (parent)
chain: MDHLGASLWPQVGSLCLLLAGAAWAPPPNLPDPKFESKAALLAARGPEELLCFTERLEDLVCFWEEAASAGVGPGNYSFSYQLEDEPWKLCRLHQAPTARGAVRFWCSLPTADTSSFVPLELRVTAASGAPRYHRVIHINEVVLLDAPVGLVARLADESGHVVLRWLPPPETPMTSHIRYEVDVSAGNGAGSVQRVEILEGRTECVLSNLRGRTRYTFAVRARMAEPSFGGFWSAWSEPVSLLTPSDLDPLILTLSLILVVILVLLTVLALLSHRRALKQKIWPGIPSPESEFEGLFTTHKGNFQLWLYQNDGCLWWSPCTPFTEDPPASLEVLSERCWGTMQAVEPGTDDEGPLLEPVGSEHAQDTYLVLDKWLLPRNPPSEDLPGPGGSVDIVAMDEGSEASSCSSALASKPSPEGASAASFEYTILDPSSQLLRPWTLCPELPPTPPHLKYLYLVVSDSGISTDYSSGDSQGAQGGLSDGPYSNPYENSLIPAAEPLPPSYVACS
partner: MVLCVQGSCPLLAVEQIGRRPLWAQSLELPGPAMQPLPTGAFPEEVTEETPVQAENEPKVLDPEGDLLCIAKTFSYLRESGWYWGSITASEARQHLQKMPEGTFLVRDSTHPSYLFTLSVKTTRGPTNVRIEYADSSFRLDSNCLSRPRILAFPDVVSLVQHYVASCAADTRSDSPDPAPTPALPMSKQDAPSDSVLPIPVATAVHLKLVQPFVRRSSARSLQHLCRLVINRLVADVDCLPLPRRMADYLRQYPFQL
B2: Erythropoietin receptor (Homo sapiens), P19235 (parent)
chain: B1 chain
partner: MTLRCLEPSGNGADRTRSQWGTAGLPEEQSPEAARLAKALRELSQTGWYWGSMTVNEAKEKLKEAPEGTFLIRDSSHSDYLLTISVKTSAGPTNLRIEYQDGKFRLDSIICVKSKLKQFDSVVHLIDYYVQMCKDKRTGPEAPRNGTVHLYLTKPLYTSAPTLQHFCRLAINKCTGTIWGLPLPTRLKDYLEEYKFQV
B3: Erythropoietin receptor (Homo sapiens), P19235 (parent)
chain: B1 chain
partner: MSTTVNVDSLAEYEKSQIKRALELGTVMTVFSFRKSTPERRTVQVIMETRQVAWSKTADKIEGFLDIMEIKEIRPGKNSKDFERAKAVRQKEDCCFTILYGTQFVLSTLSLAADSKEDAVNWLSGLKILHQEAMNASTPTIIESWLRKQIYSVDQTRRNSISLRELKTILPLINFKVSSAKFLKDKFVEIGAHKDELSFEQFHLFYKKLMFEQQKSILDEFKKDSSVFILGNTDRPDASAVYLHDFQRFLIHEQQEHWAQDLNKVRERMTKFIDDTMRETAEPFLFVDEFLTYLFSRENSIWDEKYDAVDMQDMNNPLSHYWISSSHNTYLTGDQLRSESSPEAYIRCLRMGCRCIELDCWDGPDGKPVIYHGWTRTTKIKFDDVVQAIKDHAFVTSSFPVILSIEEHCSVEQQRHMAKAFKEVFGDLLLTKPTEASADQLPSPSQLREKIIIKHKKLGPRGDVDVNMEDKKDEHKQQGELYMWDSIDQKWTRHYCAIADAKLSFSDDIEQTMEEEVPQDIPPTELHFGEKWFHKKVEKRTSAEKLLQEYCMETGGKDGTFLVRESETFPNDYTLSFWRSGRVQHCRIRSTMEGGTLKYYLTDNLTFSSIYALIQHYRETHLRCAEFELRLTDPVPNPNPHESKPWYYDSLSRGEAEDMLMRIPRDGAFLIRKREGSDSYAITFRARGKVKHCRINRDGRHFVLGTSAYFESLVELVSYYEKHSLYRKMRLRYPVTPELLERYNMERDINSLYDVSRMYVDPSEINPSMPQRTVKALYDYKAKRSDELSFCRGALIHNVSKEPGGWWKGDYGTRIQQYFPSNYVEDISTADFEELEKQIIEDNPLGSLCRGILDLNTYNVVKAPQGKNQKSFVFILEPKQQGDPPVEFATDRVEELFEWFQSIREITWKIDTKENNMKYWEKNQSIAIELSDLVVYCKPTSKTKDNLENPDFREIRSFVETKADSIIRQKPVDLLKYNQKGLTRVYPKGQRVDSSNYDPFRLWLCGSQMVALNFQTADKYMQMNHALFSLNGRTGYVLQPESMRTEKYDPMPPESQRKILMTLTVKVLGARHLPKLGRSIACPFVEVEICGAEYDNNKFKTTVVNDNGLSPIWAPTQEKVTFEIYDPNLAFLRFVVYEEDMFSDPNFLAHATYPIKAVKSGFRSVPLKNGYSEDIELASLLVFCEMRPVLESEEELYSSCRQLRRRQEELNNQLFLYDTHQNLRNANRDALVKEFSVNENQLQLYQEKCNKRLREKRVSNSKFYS
B4: 1-phosphatidylinositol 4,5-bisphosphate phosphodiesterase gamma-2 (Homo sapiens), P16885 (parent)
chain: B3 partner
partner: B1 chain

Variants of: B1
Details: with cish_mouse Cish
Y454F was tested, and the “effect of a mutation on the interaction” value was “decreasing interaction”.

Variants of: B1
Details: with cish_mouse Cish
Remark: another data set of the same source
Y426F was tested, and the “effect of a mutation on the interaction” value was “decreasing interaction”.

Variants of: B2
Details: with socs2_mouse Socs2, O35717
In the case of Y426F, the “effect of a mutation on the interaction” value is reported as “decreasing interaction”.

Variants of: B3
Details: with plcg2_human PLCG2, P16885
With Y456F the “effect of a mutation on the interaction” value was “decreasing interaction”. For Y504F, the “effect of a mutation on the interaction” value was “decreasing interaction”.

Variants of: B4
Details: with epor_human EPOR
For K367F, the “effect of a mutation on the interaction” value was “decreasing interaction”.
